{"source": "patent US8226935", "about": "(dated 2012)", "binders": {"B1": {"name": "ErbB4-IgG (antibody)", "chain": "QSVCAGTENKLSSLSDLEQQYRALRKYYENCEVVMGNLEITSIEHNRDLSFLRSVREVTGYVLVALNQFRYLPLENLRIIRGTKLYEDRYALAIFLNYRKDGNFGLQELGLKNLTEILNGGVYVDQNKFLCYADTIHWQDIVRNPWPSNLTLVSTNGSSGCGRCHKSCTGRCWGPTENHCQTLTRTVCAEQCDGRCYGPYVSDCCHRECAGGCSGPKDTDCFACMNFNDSGACVTQCPQTFVYNPTTFQLEHNFNAKYTYGAFCVKKCPHNFVVDSSSCVRACPSSKMEVEENGIKMCKPCTDICPKACDGIGTGSLMSAQTVDSSNIDKFINCTKINGNLIFLVTGIHGDPYNAIEAIDPEKLNVFRTVREITGFLNIQSWPPNMTDFSVFSNLVTIGGRVLYSGLSLLILKQQGITSLQFQSLKEISAGNIYITDNSNLCYYHTINWTTLFSTINQRIVIRDNRKAENCTAEGMVCNHLCSSDGCWGPGPDQCLSCRRFSRGRICIESCNLYDGEFREFENGSICVECDPQCEKMEDGLLTCHGPGPDNCTKCSHFKDGPNCVEKCPDGLQGANSFIFKYADPDRECHPCHPNCTQGCNGPTSHDCIYYPWTGHSTLPQHARTP", "modifications": "homodimeric ECD-human IgG Fc immunoadhesin"}, "B2": {"name": "ErbB3/4-IgG (antibody)", "chain 1": "not shown", "chain 2": "B1 chain", "modifications": "heterodimeric ECD-human IgG Fc immunoadhesin (mixture with homodimers)"}}, "target": "T1, heregulin (125I-HRG) (human, UniProt Q02297)", "T1 chain": "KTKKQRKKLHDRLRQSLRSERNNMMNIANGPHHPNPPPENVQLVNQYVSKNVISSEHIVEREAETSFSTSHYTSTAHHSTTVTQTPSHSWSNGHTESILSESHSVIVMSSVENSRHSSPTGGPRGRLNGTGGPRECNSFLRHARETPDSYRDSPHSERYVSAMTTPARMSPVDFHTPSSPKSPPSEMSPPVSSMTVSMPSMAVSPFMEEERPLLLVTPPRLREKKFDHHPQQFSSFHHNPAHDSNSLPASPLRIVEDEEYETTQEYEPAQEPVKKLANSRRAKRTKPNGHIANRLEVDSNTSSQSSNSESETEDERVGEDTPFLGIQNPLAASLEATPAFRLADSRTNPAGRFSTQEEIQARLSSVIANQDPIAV", "assay": "other 125I-HRG radioligand binding, Scatchard", "data": [{"binder": "B1", "values": [{"measurement": "Kd", "result": 4.98, "unit": "nM"}]}, {"binder": "B2", "values": [{"measurement": "Kd", "result": 5.98, "unit": "nM"}]}]}
